{"source": "the DeepSol protein solubility set"}
{"test": "soluble on expression in E. coli; label from the status in PepcDB or PDB records"}
{"sequence": "MALNVNRAVADPFYRYKMPKLSAKVEGKGNGIKTVISNMSEIAKALERPPMYPTKYFGCELGAQTNFDAKNERYIVNGEHDANKLQDILDGFIKKFVLCKSCENPETQLFVRKNNIKSKCKACGCSFDIDLKHKLSTFIMKNPPKIDVDFSKAEQKNGKKTSGADAAAAVAADIIHNSDKGSSNDDDDDDWEPEPVEPNGMLSAGMGKLVLDKDLEKSEEQRLDMLHTFFLKAKEEDRISDAKGQTALRDEAERLELKQKASLLLANVFLDEKVITDKQISKHRNLLLRFTLNDKKAQRYLLGGVEQVIHKHEAELLSKSAHIIKSLYDEDVCEEDSLISWGEKPSSKYVSKSFAKKIIENSQPVLNWLKEAEEETEEESDDEIAFGGDVKESEFLRQQKEKAAREAQQKSAKATNGNAAAASGANDEEDLDIDDI", "soluble on expression in E. coli": "soluble"}
{"sequence": "GPLGSASAAASGKEGVEITYGSAIKLMHEKTKFRLHSHDVPYGSGSGQQSVTGFPGVVDSNSYWIVKPVPGTTEKQGDAVKSGATIRLQHMKTRKWLHSHLHASPISGNLEVSCFGDDTNSDTGDHWKLIIEGSGKTWKQDQRVRLQHIDTSGYLHSHDKKYQRIAGGQQEVCGIREKKADNIWLAAEGVYLPLNESSK", "soluble on expression in E. coli": "soluble"}
{"sequence": "MGSDKIHHHHHHMTISIPDTLTTDNSEKYIVSIRLRSGGLSFSGYDPSAGGSFFYRETEFDRAVSFISSLKEFFFAHEFLTWTYKRINVICVSPEYSLVPDNYWGDGKEGRLLDFSFSTLELHCLTDTLKEQQAKLVFGVDEEVYEFCSRSLLHPFFSHYMTSLLTLWTKESSASLPRQMYVVIERKRMDVACYAQGKLLFVNSYPIDQSDDIVYYILYVWKQAGLDQEKDQLLLAGESSSRMRVLERLRAYLRHVKPVEIPSEAYLLGTDVTKAPMDLISLLICE", "soluble on expression in E. coli": "not soluble"}
{"sequence": "MSPFMEKTLLLLGVLCCIQVTTALMCYDCNSEFDPRCGDPFEPYSIGEVNCSKQEPLEHLKDKYKPTLCRKTVQKIYGKTRIVRGCGYIPDENTDNKCVRRSGTHDVAAIYCSCTKDLCNGANSPAGQWMMLPLIVAAGLALLLNSRHTIRFQSS", "soluble on expression in E. coli": "not soluble"}
{"sequence": "MSKFDTSALEAFVRHIPQNYKGPGGVVAVVKDGEVVLQHAWGFADLRTRTPMTLDTRMPICSVSKQFTCAVLLDAVGEPELLDDALEAYLDKFEDERPAVRDLCNNQSGLRDYWALSVLCGADPEGVFLPAQAQSLLRRLKTTHFEPGSHYSYCNGNFRILADLIEAHTGRTLVDILSERIFAPAGMKRAELISDTALFDECTGYEGDTVRGFLPATNRIQWMGDAGICASLNDMIAWEQFIDATRDDESGLYRRLSGPQTFKDGVAAPYGFGLNLHETGGKRLTGHGGALRGWRCQRWHCADERLSTIAMFNFEGGASEVAFKLMNIALGVSSSEVSRVEADSAWFGSWLDDETGLVLSLEDAGHGRMKARFGTSPEMMDVVSANEARSAVTTIRRDGETIELVRASENLRLSMKRVKGEAKHDIIGRYHSDELDADLLLVSEGGAIYGAFEGFLGKSDMYPLYSVGSDVWLLPVQRSMDAPSPGEWKLVFRRDDKGEITGLSVGCWLARGVEYRRVQP", "soluble on expression in E. coli": "soluble"}
{"sequence": "MKKAIQFGAGNIGRGFIGGLLVKSGYHVVFADVNEYILNSINKDKKYTIHIRDVECIDEVIDNISAVSSIKEEIIDEIVQAEIITTAVGPLVLTKIASTIAKGIKARKEKGLTSNLNIIACENAIYASSSLKEEVLKYLNKEEVEYLEMYVGFPNCSVDRIVPPGKNENPLDVTVENFYEWNVEKQGFKGEIPTIVGMNLADNLMAYIERKLFTLNTGHAITAYIGYLKGYKTIEESIKDKFICDIVKSAMVESGEGLIKKYNFDSEVHYKYIDKILNRFKNPYLNDDVLRVGREPLRKLSDKDRLIKPLMTAKSYGLSVDNLILGIGAALHYNNSEDTQSVELQELIKSIGVKKAVAKIANISNDEELLNNIEKSYIFMKNL", "soluble on expression in E. coli": "not soluble"}
{"sequence": "MGSDKIHHHHHHMNQIDRLLTIMQRLRDPENGCPWDKEQTFATIAPYTLEETYEVLDAIAREDFDDLRGELGDLLFQVVFYAQMAQEEGRFDFNDICAAISDKLERRHPHVFADSSAENSSEVLARWEQIKTEERAQKAQHSALDDIPRSLPALMRAQKIQKRCANVGFDWTTLGPVVDKVYEEIDEVMYEARQAVVDQAKLEEEMGDLLFATVNLARHLGTKAEIALQKANEKFERRFREVERIVAARGLEMTGVDLETMEEVWQQVKRQEIDL", "soluble on expression in E. coli": "not soluble"}
{"sequence": "MSQDNLSAVLYGVDDLRLEQVPIPKPGPNQVLVKVHTVGICGSDVHYWTHGAIGPFVVKEPMIVGHETSGIVSEVGNEVKHLKVGDRIAMEPGLPCKLCEHCKTGRYNLCPEMRFFATPPVHGTLSRFVVHDADFCFKLPDNLSFEDGALIEPLSVAIHACRRGNVQMGHRVLVLGAGPIGVLNLITAKAVGAGKVVITDLDDGRLALAKKLGADATINVKGKSLDAVKSEIITALGDQQPDVCIECTGAQPSIETAITTTKSGGVIVLVGLGADRVEIPIIESATREVDMRGIFRYVNCYPTAIELISSGKLNLSGLTRAHYKLEETQEAFKRTQKADVIKVFIQC", "soluble on expression in E. coli": "not soluble"}
{"sequence": "MAHHHHHHMPSRRFNARRGMIAARRGFFTATSPCRQSRLVPFHELFAPLSSSSLPSSPRRFPVHSVCVDPPLGTLGEPSRSQGAGAEDGSPLSWLRENLQLLEDGRKSLNERRASMPEGSPQWPRYMFPSHCCEYIYDPSNDSKLAFVTSDNYCHLCHEPVEVAIQHCAWWDHVTRLAAIRLIAIYPRRWSPVAVLREANEVLPTAVMVSPRPHPFLSFSEAVDTDDVSLMDMSSCYVFEREAVVRRAELAAILRVLCTAKDADSCDDAEQRISSIIPVLRESLFLSANGTPAASSGERTFRAYISRQISVFLPPMAPEPTTRIQQRCWGRKNLEIMFDLLGVASLQRIAGAPVEAVTKNEKAAVLRQIIYELATVLSEGDAEFAETSCAKINGTSSVDAEVQTRLLAEMALQRLAHELIHLHTMLLMDQAYETYVKLGYPSEGMLEKSGFC", "soluble on expression in E. coli": "not soluble"}
{"sequence": "MTEALEQPLRRILSYWRNEIKPLLDAETGTLFKQAPIRVTLAFPNRYSVGMASLGYQVIYRMFNQEEGVACERAFLPDDVDAFERTGQALPTVESGRAAGDCELFSISVSFELDLTNIIRLIDVAGMNPLREERDETDPVVMIGGPLTSSNPYPLTPFADIIIIGDGEQIVPVVSEALRESSSREDFYDLIDGVPGVFLPARHVHEPTWATAPKELLPAYSQIVTPHSELSNMFLVEAQRGCPRPCTFCLARTMYGPNRNNQAQELLDVIPDWVEKVGLVGAALSDFPHTKFVGKTLTERGVKLGVSSIRADTVDAELAEILKAGGLRTFTVASDAPSERLRRWLKKGITTEDLLKTAQISRDLGFSGLKVYMMIGLGPENDDDITELISFTKELAGINRIALGISPFVPKRHTPHFADPFAGVQTIEKRLKRIQKELRTTAELRNVSAKWAWVESVIARGGPEVGMAAYQIYRNESIGAWKKALDEVGWQDDFEANTPSIGLPPGQYESKEVSAHAQGLAVLEHHHHHH", "soluble on expression in E. coli": "soluble"}
{"sequence": "MGSDKIHHHHHHERNKTLYWGGALWSPPSNWNPFTPWNAVAGTIGLVYEPLFLYDPLNDKFEPWLAEKGEWVSNNEYVLTLRKGLRWQDGVPLTADDVVFTFEIAKKYTGISYSPVWNWLGRIERVDERTLKFVFSDPRYQEWKQMLINTPIVPKHIWENKTEEEVLQAANENPVGSGPYYVESWADDRCVFKKNGNWWGIRELGYDPKPERIVELRVLSNNVAVGMLMKGELDWSNFFLPGVPVLKKAYGIVTWYENAPYMLPANTAGIYINVNKYPLSIPEFRRAMAYAINPEKIVTRAYENMVTAANPAGILPLPGYMKYYPKEVVDKYGFKYDPEMAKKILDELGFKDVNKDGFREDPNGKPFKLTIECPYGWTDWMVSIQSIAEDLVKVGINVEPKYPDYSKYADDLYGGKFDLILNNFTTGVSATIWSYFNGVFYPDAVESEYSYSGNFGKYANPEVETLLDELNRSNDDAKIKEVVAKLSEILLKDLPFIPLWYNGAWFQASEAVWTNWPTEKNPYAVPIGWNGWWQLTGIKTLFGIEAK", "soluble on expression in E. coli": "soluble"}
